The values that follow come from patent US8778880.

Assay [1] has as its target T1, rat GHR (L43R) on BAF3 cells (clone 2E2-2B12-F4) (rat) (UniProt P16310).
T1 sequence (looked up): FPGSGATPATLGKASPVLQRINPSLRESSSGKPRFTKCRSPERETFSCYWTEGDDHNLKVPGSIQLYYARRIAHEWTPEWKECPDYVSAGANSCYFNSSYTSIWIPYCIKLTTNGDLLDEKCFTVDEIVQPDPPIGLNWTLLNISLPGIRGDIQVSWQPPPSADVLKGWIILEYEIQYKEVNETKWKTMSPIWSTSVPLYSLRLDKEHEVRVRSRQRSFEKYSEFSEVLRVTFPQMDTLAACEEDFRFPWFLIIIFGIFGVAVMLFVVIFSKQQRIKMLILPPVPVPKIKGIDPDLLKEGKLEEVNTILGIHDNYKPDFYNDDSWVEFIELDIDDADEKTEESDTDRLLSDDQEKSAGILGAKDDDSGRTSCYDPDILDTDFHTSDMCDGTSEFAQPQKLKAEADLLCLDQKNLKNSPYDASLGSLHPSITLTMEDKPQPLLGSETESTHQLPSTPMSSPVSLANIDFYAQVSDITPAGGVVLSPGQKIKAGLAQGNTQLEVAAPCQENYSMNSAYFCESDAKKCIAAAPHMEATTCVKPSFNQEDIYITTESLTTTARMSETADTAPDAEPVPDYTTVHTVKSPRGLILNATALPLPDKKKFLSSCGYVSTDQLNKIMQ
Nature of the assay: cell-based or functional assay.

Assay [2] deals with human growth hormone receptor on IM-9 cells (human) (UniProt P10912). In words: cell-based or functional assay.
UniProt P10912, sequence (P10912 19-638): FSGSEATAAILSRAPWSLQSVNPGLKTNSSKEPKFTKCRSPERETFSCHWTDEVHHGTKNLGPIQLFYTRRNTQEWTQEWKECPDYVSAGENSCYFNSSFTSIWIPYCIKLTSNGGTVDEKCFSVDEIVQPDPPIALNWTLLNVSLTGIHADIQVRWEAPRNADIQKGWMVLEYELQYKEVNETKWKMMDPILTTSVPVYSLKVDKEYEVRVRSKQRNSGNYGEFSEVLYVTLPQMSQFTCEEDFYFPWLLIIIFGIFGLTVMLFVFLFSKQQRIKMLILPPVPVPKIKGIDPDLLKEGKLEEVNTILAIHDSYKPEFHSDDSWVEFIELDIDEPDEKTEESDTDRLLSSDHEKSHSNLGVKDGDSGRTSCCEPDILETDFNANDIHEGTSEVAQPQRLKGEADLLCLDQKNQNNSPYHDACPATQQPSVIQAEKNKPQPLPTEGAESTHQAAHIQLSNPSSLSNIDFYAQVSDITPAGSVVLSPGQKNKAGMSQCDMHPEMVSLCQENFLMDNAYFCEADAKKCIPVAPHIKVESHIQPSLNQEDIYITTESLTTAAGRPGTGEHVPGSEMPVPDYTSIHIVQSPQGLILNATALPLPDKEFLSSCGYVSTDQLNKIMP

“hGH Y143pAF-30KPEG (from UniProt P01241 27-217) (ligand)” yielded a Proliferation EC50 (BrdU, rat GHR (L43R) BAF3 cells) (nM (head); WHO hGH expressed as unity) in assay [1] of 6.6. Besides, the pSTAT5 EC50 (IM-9) (nM (head); WHO hGH expressed as unity) in assay [2] stood at 12.3.

Substance “hGH Y35pAF-40KPEG (from UniProt P01241 27-217) (ligand)” gave a Proliferation EC50 (BrdU, rat GHR (L43R) BAF3 cells) (nM (head); WHO hGH expressed as unity) in assay [1] of 24. The substance also had a pSTAT5 EC50 (IM-9) (nM (head); WHO hGH expressed as unity) in assay [2] of 53.3.

Turning to “hGH R134pAF-20KPEG (from UniProt P01241 27-217) (ligand)”, in assay [2], the pSTAT5 EC50 (IM-9) (nM (head); WHO hGH expressed as unity) came out at 5.3.

Take “hGH G131pAF-30KPEG (from UniProt P01241 27-217) (ligand)”: the Proliferation EC50 (BrdU, rat GHR (L43R) BAF3 cells) (nM (head); WHO hGH expressed as unity) in assay [1] turned out to be 4.6. In assay [2], this substance showed a pSTAT5 EC50 (IM-9) (nM (head); WHO hGH expressed as unity) of 23.8.

In assay [1], “hGH K145pAF-30KPEG (from UniProt P01241 27-217) (ligand)” yielded a Proliferation EC50 (BrdU, rat GHR (L43R) BAF3 cells) (nM (head); WHO hGH expressed as unity) of 5.3. The substance also came in with a pSTAT5 EC50 (IM-9) (nM (head); WHO hGH expressed as unity) in assay [2] of 20.6.
